Experimental data: paper PMC3510032
Values belong to the molecule of their own block, whether it stands above or below them.

Key:
[1] = molecular target: Shep (endogenous, embryo nuclear extract) (Drosophila (endogenous in embryos)) (UniProt Q8MSV2); experiment: co-IP; embryo nuclear extracts in HBSMT, α-Shep or pre-immune serum pre-conjugated to protein A sepharose, 1 h at 4°C; Western blotting
[2] = molecular target: GST-Shep isoform B/D (Drosophila (Oregon R)); experiment: pull-down; 2 µg GST or GST fusion protein immobilised on Glutathione-Agarose, 35 µg soluble His-Mod(mdg4)2.2 in 350 µL PBSMT (137 mM NaCl, 250 mM MgCl2, 0.3% Triton X-100, 1 mM DTT, 100 mg/mL BSA), 4°C, 2 h, 5 washes; bound protein detected by Western blotting
[3] = molecular target: GST-Shep isoform E (Drosophila (Oregon R)); experiment: as above
[4] = molecular target: GST-Shep isoform A (Drosophila (Oregon R)); experiment: as above
[5] = molecular target: GST-Shep isoform B/D (Drosophila (Oregon R)); experiment: pull-down; GST or GST fusion protein immobilised on Glutathione-Agarose, soluble His-Su(Hw) in HBSM (50 mM HEPES pH 6.7, 150 mM NaCl, 5 mM KCl, 2.5 mM MgCl2) with 0.3% Triton-X 100, 0.2 M KCl, 1 mM DTT, 100 mg/mL BSA, 4°C, 2 h; bound protein detected by Western blotting
[6] = molecular target: GST-Shep isoform E (Drosophila (Oregon R)); experiment: as above
[7] = molecular target: GST-Shep isoform A (Drosophila (Oregon R)); experiment: as above

percent of total recovered in the IP [1]: 0.1%
Molecule: Mod(mdg4)2.2 (endogenous, embryo nuclear extract) (natural protein)

stoichiometry N [2]: 1 molar ratio | stoichiometry N [3]: 1 molar ratio | stoichiometry N [4]: 1 molar ratio
Molecule: His-Mod(mdg4)2.2 (natural protein)

stoichiometry N [5]: 1 molar ratio | stoichiometry N [6]: 1 molar ratio | stoichiometry N [7]: 1 molar ratio
B1: His-Su(Hw) (natural protein)
chain: MSASKEGKEKKGKLLGVENISPPKDKRPATRMKLLNDVGAGEDSEASTTTTTSRTPSNKQEKRGSVAGSRIKILNEEILGTPKTEKRGATKSTAPAASTVKILNEKKTPSATVTAVETTKIKTSPSKRKKMEHYVLQAVKSENTKADTTVTVVTEEDDTIDFILADDEEVVPGRIENNNGQEIVVTEDDEDLGEDGDEDGEDSSGKGNSSQTKIKEIVEHVCGKCYKTFRRVQSLKKHLEFCRYDSGYHLRKADMLKNLEKIEKDAVVMEKKDICFCCSESYDTFHLGHINCPDCPKSFKTQTSYERHIFITHSEFSDFPCSICNANLRSEALLALHEEQHKSRGKPYACKICGKDFTRSYHLKRHQKYSSCSSNETDTMSCKVCDRVFYRLDNLRSHLKQHLGTQVVKKPEYMCHTCKNCFYSLSTLNIHIRTHTGEKPFDCDLCDKKFSALVALKKHRRYHTGEKPYSCTVCNQAFAVKEVLNRHMKRHTGERPHKCDECGKSFIQATQLRTHSKTHIRPFPCEQCDEKFKTEKQLERHVKTHSRTKRPVFSCAECKRNFRTPALLKEHMDEGKHSPKQQRSSMRSAVKIMERTDCAICDKNFDSSDTLRRHIRTVHECDPDDIFGVEPHPSKRAKKDIESEEVVPVALNTSAGSLISSQTDGNGVVVREFLVDEGDGAAQTITLENETYTILPLDGAIEGEQLTDEAGVKPEAKKEEAQVSPVVKKEQRKSLAASLAAAIADNLEESCSEDDFSGEILTEEDIKLKENVGKLIDMLVDPPILKKYGWPNAPEETVLCKVIENCGHDLTKGGENYAELDYGSRMREYCKLLFTVVIHNDSIKSLLNNFPIDDVIEYVLGDEDQDEGGLDKDNESHSGDEEAVSVTGETKTNEIREKPEKKEVSAKSEKKEIVGKAVDKDNSEEVVRENKKKPVGEQEKA
